# Data as given in paper PMC7069095, “A cell-permeable peptide-based PROTAC against the oncoprotein CREPT proficiently inhibits pancreatic cancer” (Theranostics, 2020).
# Non-standard residues stand in square brackets, D forms with d. No end group written: not given here. *: point of attachment. FITC = O=C1OC2(c3ccc(O)cc3Oc3cc(O)ccc32)c2ccc(NC(=S)*)cc21; Hyp = O=C(O)[C@@H]1C[C@@H](O)CN1; Ahx = NCCCCCC(=O)O
# T1: purified GST-CREPT protein (microscale thermophoresis and thermal shift assay) (UniProt Q9NQG5 1-326)
# T1 construct: CREPT (also named RPRD1B); it may be the same as m2 or m3; also called GST-tagged CREPT; purified CREPT proteins; source: purified
# T1 sequence (looked up): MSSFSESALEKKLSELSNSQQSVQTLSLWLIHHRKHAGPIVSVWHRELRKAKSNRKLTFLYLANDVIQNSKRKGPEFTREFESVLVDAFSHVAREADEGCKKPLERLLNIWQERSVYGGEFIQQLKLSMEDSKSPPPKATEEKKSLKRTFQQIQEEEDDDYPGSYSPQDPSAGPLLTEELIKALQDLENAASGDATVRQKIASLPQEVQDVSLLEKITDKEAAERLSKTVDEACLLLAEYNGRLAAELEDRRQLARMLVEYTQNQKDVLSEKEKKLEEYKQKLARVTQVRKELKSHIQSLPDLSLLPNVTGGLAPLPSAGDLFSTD
# Columns and labels:
# Panc-1 cells = assay: Confocal fluorescence imaging of FITC labeled peptides in cells; format: cell-based; settings: confocal microscope, 10 μM FITC labeled peptides, Panc-1 cells
# Procedure: To examine whether PRTC could permeate into pancreatic cancer cells, we synthesized fluorescein isothiocyanate (FITC) labeled PRTC, PRTC-m, PRTC-v, PRTC-r (PRTC without RRRRK) as well as TAT (a widely used cell penetrating peptide, as a positive control).
# Figure 3 Identification of the permeability of PRTC in Panc-1 cells. (A) Entry of FITC- labeled peptides into Panc-1 cells tested by flow cytometry. FITC-TAT is the positive control. Measurements were performed in triplicate. (B) Quantification of cellular uptake of Panc-1 cells treated with different concentrations of FITC-PRTC. (C) Confocal microscope images of Panc-1 cells treated with 10 μM FITC labeled peptides. Scale bars, 10 μm. (D) Confocal microscope images of Panc-1 cells treated with different dosages of FITC-PRTC. Scale bars, 10 μm.
# [1] = molecular target: T1, purified GST-CREPT protein (microscale …); assay: MST; 100 nM FITC-labeled peptide kept constant, gradient dilutions of purified GST-CREPT; Microscale Thermophoresis NT.115, MO.AffinityAnalysis; settings: both partners purified
# [2] = molecular target: T1, purified GST-CREPT protein (microscale …); assay: thermal shift assay; 5.33 μM purified CREPT protein in 50 mM Tris-HCl pH 8.0, 150 mM NaCl, SYPRO Orange, peptide or deionized H2O added; 25 to 70 °C at 1 °C/min; settings: both partners purified
molecule,measurement,setting,value
"FITC-AHX-IYP (OH) AL-AHX-KDVPSEKEKKPEEYKQKPARV-RRRRK [FITC-PRTC-m, FITC labeled PRTC-m]",localization of FITC labeled peptides in the cells,Panc-1 cells,strong localization
"{FITC-Ahx}-IY[Hyp]AL[Ahx]KDVLSEKEKKLEEYKQKLARVRRRRK (VHL ligand IYP(OH)AL; the P is trans-4-hydroxy-L-proline; followed by the AHX linker; CREPT ligand (CL): leucine-zipper-like motif of CREPT (RPRD1B), lysine 266 to valine 286; transmembrane transport pentapeptide; Peptide-based PROTAC: VHL ligand, AHX linker, CREPT ligand, RRRRK; also called FITC-labeled PRTC; source: synthetic peptide (ChinaPeptides Co., Ltd.), purified by HPLC) [FITC-PRTC]",Kd,[1],0.34 µM
"IY[Hyp]AL[Ahx]KDVLSEKEKKLEEYKQKLARVRRRRK (VHL ligand IYP(OH)AL; the P is trans-4-hydroxy-L-proline; followed by the AHX linker; CREPT ligand (CL): leucine-zipper-like motif of CREPT (RPRD1B), lysine 266 to valine 286; transmembrane transport pentapeptide; The thermal shift assay names the peptide only as PRTC; also called cell-permeable peptide-based PROTAC against CREPT; source: synthetic peptide (ChinaPeptides Co., Ltd.), purified by …) [PRTC]",dTm (thermal shift),[2],6 °C
